The values that follow come from US8784821 (Amgen, dated 2014).

T1: recombinant soluble extracellular domain of the human CD3 epsilon chain with His6 tag, expressed alone (human)
T1 construct: also called recombinant CD3-epsilon antigen; rCD3-epsilon
T1 chain: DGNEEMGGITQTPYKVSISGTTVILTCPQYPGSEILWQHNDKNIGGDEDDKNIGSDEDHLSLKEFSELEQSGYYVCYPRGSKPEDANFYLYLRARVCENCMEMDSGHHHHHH

B1: human anti-human CD3 scFv 3-190 (FLAG-tagged) (scFv)
scFv: ELQLVEWGAGLLKPSETLSLTCAVYGGSFSGYYWSWIRQPPGKGLEWIGEINHSGSTNYNPSLKSRVTISVDTSKNQFSLKLSSVTAADTAVYYCARGRGRFLGWLLGGSNWFDPWGQGTLVTVSSGGGGSGGGGSGGGGSELVMTQSPSSLSASVGDRVTITCRASQGISNYLNWYQQKPGKAPKLLIYDASNLETGVPSRFSGSGSGTDFTLTISSLQPEDFATYYCQQSYSTPYTFGQGTKVDIKTGDYKDDDDK
notes: VH-(G4S1)3-VL scFv from huLIB-STE, tested as crude periplasmic preparation
B2: human anti-human CD3 scFv 3-550 (FLAG-tagged) (scFv)
scFv: ELQLVESGPGLVKPSQTLSLTCAISGDSVSSNSAAWNWIRQSPSRGLEWLGRTYYRSKWYNDYAVSVKSRITINPDTSKNQFSLQLNSVTPEDTAVYYCARDRRRIAARQYYGMDVWGQGTTVTVSSGGGGSGGGGSGGGGSELVLTQSPGTLSLSPGERATLSCRASQSVSSNYLAWYQQKPGQAPRLLIYGASSRATGIPDRFSGSGSGTDFTLTISSLQPEDVATYYCQKYNSAPLTFGGGTKVEIKTGDYKDDDDK
notes: as for B1
B3: human anti-human CD3 scFv 4-48 (FLAG-tagged) (scFv)
scFv: ELQLVESGPVLVKPTDTLTLTCTVSGFSLNNPRMGVSWIRQPPGKTLEWLAHIFPSDAKAHSASLKSRLTISKDTSKSQVVPTMTNMDPVDTATYYCARILGEYYPPAWFDPWGQGTLVTVSSGGGGSGGGGSGGGGSELVMTQSPDSLAVSLGERATINCKSSQSVLYSSNNKNYLAWYQQKPGQPPKLLIYWASTRESGVPDRFSGSGSGTDFTLTISSLQAEDVAVYYCQQYLKIPYTFGQGTKVEIKTGDYKDDDDK
notes: VH-(G4S1)3-VL scFv from huLIB-STE, tested as crude periplasmic preparation; also called clone 4-48
B4: human anti-human CD3 scFv 3-106 (FLAG-tagged) (scFv)
scFv: ELQLVESGGGVVQPGRSLRLSCAASGFTFSSYGMHWVRQAPGKGLEWVAVISYDGSNKYYADSVKGRFTISRDNSKNTLYLQMNSLRSEDTAVYYCARLSPYCTNGVCWDAFDIWGQGTMVTVSSGGGGSGGGGSGGGGSELQMTQSPSSLSASVGDRVSITCRASQTISNYLNWYQLKPGKAPKLLIYAASTLQSEVPTRFSGSGSGTDFTLTISGLHPEDFATYYCQQFNSYPRTFGQGTKVEIKTGDYKDDDDK
notes: VH-(G4S1)3-VL scFv from huLIB-ST, tested as crude periplasmic preparation
B5: human anti-human CD3 scFv 4-10 (FLAG-tagged) (scFv)
scFv: ELQLVESGGGLVQPGGSLRLSCAASGFTFSSYAMGWVRQAPGKGLEWVSAVSGSGGSTYYADSVKGRFTISRDNSKNTLYLQMNSLRAEDTAVYYCAKAKFLGHYYGMDVWGQGTTVTVSSGGGGSGGGGSGGGGSELQMTQSPSSLSASVGDRVTITCRASQSISSYLNWYQQKPGKAPKLLIYAASSLQSGVPSRFSGSGSGTEFTLTISSLQPEDFATYYCLQHNAYPYTFGQGTKVEIKTGDYKDDDDK
notes: VH-(G4S1)3-VL scFv from huLIB-ST, tested as crude periplasmic preparation; Flag-tag put at the C-terminus because it replaces the vector's His6-tag; also called construct 4-10
B6: human anti-human CD3 scFv 3-148 (FLAG-tagged) (scFv)
scFv: ELQLVESGPGLVKPSGTLSLTCAVSGGSISSRNWWSWVRQPPGKGLEWIGDIYHSGSTNYNPSLKSRVTISVDKSKNQFSLKLSSVTAADTAVYYCASGYTSCRDAFDIWGQGTMVTVSSGGGGSGGGGSGGGGSELVMTQSPSSLSASVGDRVTITCRASQGIGNYLAWYQQKPGQPPKMLIYWASIRESGVPDRFSGSGSGTDFTLTISSLQAEDVAVYYCQQYYSNPQTFGQGTKVEIKTGDYKDDDDK
notes: as for B4
B7: human anti-human CD3 scFv 3-271 (FLAG-tagged) (scFv)
scFv: ELQLVEWGAGLLKPSETLSLTCAVYGGSFSGYYWSWIRQPPGKGLEWIGEINHSGSTNYNPSLKSRVTISVDTSKNQFSLKLSSVTAADTAVYYCARGPDRMGHGFDIWGQGTMVTVSSGGGGSGGGGSGGGGSELQMTQSPSSLSASVGDRVTITCRASQSISSYLNWYQQKSGKAPKLLIYAASSLQSGVPSRFSGSGSGTDFTLTISSLQPEDFATYYCQQSYSSPWTFGQGTKVEIKTGDYKDDDDK
notes: as for B1
B8: human anti-human CD3 scFv 3-114 (FLAG-tagged) (scFv)
scFv: ELQLVESGGGLVKPGRSLRLSCTASGFTFGDYAMSWFRQAPGKGLEWVGFIRSKAYGGTTEYAASVKGRFTISRDDSKSIAYLQMNSLKTEDTAVYYCTPQLWLLQDAFDIWGQGTMVTVSSGGGGSGGGGSGGGGSELQMTQSPSSLSASVGDRVTITCRASQGISNYLAWYQQKPGKVPKLLIYAASTLQSGVPSRFSGSGSGTDFTLTISSLQPEDFATYYCQQSYSTPPTFGQGTKLEIKTGDYKDDDDK
notes: as for B4

The first assay deals with T2, human CD3 complex, native, on CD3-positive human T cells (human, UniProt P07766 23-207; P09693 23-182; P04234 22-171).
T2 construct: whole, on cells; Presented as part of the TCR/CD3 complex on Jurkat cells (flow cytometry) and on the CD4-positive T cell clone CB15 (cytotoxicity assays); also called CD3 on Jurkat cells; CD3+ Jurkat cells
The assay is described as follows: flow cytometry screening on Jurkat cells, periplasmic preparation. Here is the method:
Periplasmic preparations of soluble scFv protein fragments were added to CD3-positive Jurkat cells. Detection was performed by a 1.0 monoclonal anti-Flag antibody followed by a PE-labeled polyclonal anti-mouse antibody. ScFvs binding to cells was measured by an increase in fluorescence intensity as compared to cells that were incubated with PBS alone: Fluorescence intensity is blotted on the X-axis, the number of events is blotted on the Y-axis. The negative control is shown in black, the respective scFvs are shown in gray. Shifting to the right indicates positive binding to the cells. Periplasmic preparation from cells producing the anti-CD3 scFv L2K was included, as well as the purified anti-CD3 antibodies UCHT1, SP34 and OKT3 (concentration of each 5 µg/ml).
A general note: Flow cytometry measures light scatter and fluorescence of single cells or particles in a stream.
Target sequence in this assay (P09693 23-182, chain 2 of 2): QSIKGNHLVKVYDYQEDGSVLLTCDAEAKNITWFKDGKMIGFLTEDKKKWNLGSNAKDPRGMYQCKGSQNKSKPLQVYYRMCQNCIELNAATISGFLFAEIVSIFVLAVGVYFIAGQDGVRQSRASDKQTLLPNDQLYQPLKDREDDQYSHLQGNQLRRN
Target sequence in this assay (P04234 22-171, chain 3 of 2): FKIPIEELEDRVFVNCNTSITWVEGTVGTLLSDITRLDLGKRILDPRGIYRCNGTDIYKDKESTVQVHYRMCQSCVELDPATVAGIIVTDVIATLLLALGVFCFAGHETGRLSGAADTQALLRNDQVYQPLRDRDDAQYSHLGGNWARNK
B1: the binding result is recorded as “binds”.
On the same count and under the same terms, the same measure for B2: “binds”; for B3: “binds”.

The target in a further assay is T3, BSA (blocking agent) (UniProt P02769 25-607).
T3 construct: Specificity control of the ELISA
T3 sequence (P02769 25-607 limits assumed): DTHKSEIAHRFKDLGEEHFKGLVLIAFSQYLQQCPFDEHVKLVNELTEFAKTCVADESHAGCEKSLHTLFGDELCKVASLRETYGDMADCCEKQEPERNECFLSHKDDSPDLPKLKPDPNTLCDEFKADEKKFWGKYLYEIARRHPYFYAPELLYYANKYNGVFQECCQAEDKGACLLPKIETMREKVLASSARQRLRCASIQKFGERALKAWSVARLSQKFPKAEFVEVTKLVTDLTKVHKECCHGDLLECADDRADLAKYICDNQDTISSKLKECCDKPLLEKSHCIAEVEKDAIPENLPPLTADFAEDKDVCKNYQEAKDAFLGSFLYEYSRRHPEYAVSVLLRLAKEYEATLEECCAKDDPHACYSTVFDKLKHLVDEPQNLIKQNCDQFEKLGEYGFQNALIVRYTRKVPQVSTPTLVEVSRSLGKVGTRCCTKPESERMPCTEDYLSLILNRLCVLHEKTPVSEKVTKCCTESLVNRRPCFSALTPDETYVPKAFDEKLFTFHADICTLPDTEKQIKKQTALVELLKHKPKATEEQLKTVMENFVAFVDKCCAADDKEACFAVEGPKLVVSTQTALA
The assay is described as follows: ELISA on uncoated plates blocked with PBS 3% BSA, periplasmic preparation. Here is the method: (§1) FIG. 15: ELISA-analysis of periplasmic preparations containing Flag-tagged scFv protein fragments from selected clones. […] Detection was performed by a monoclonal anti-Flag antibody followed by a peroxidase-conjugated polyclonal goat anti-mouse antibody. The ELISA was developed by an ABTS-substrate solution as described in example 3. The OD-values (Y-axis) were measured at 405 nm by an ELISA-reader. Clone numbers are presented on the X-axis, where the first number of the clone number indicates the round of panning in which the respective clone was obtained, while the second number indicates the respective clone of this round. Periplasmic preparation from cells producing the anti-CD3 scFv L2K was included, as well as the purified anti-CD3 antibodies UCHT1, SP34 and OKT3 (concentration of each 1 µg/ml).
(§2) ELISA experiments were carried out by coating the recombinant CD3 epsilon on wells of 96 well plastic plates (Nunc, maxisorb) typically at 4° C. over night. […] After removal of the blocking solution, PPPs and control solutions were added to the wells and incubated for typically one hour at room temperature. The wells were then washed three times with PBS/0.05% Tween 20. Detection of scFvs and control antibodies bound to immobilized antigen was Carried out using a monoclonal murine anti-His6 or anti FLAG-tag antibody (Qiagen anti-PentaHis and M2 anti Flag Sigma, typically each at a final concentration of 1 µg/ml PBS) detected with a peroxidase-labeled polyclonal goat anti- (mouse Fab-fragment) antibody (Dianova, 1 µg/ml PBS). The signal was developed by adding ABTS substrate solution and measured at a wavelength of 405 nm. Unspecific binding of the test-samples to the blocking agent was examined by carrying out the identical assays with the identical reagents and identical timing on ELISA plates which were not coated but blocked with BSA, only.
Background: In an ELISA, binding on a coated surface is turned into a signal by an enzyme label.
Regarding B1, the binding result is listed as “no binding”.
Still for that read-out and setting: the same measure for B2: “no binding”; for B4: “no binding”.
Same read-out and setting: next, B5: “no binding”; B6: “no binding”.
For the molecule B7, the binding result is reported as “no binding”.
With B3, the binding result is given as “no binding”.
Same read-out and setting: the same measure for B8: “no binding”.

The target in the next assay is T2, human CD3 complex, native, on …. The assay is described as follows: conclusion from ELISA (FIGS. 14 and 15) and flow cytometry on Jurkat cells.
Target sequence in this assay (P07766 23-207, chain 1 of 3): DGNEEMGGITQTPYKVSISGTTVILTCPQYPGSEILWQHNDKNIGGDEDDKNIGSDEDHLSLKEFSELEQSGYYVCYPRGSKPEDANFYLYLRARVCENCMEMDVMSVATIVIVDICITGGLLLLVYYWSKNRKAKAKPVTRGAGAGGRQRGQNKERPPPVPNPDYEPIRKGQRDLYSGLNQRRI
Target sequence in this assay (P09693 23-182, chain 2 of 3): as the sequence (P09693 23-182, chain 2 of 2) above
Target sequence in this assay (P04234 22-171, chain 3 of 3): as the sequence (P04234 22-171, chain 3 of 2) above
Consider B4, for which the binding result is given as “binds”.
The same measure, in the same setting: next, B5: “binds”.
The same measure, in the same setting: the same measure for B6: “binds”.
For the molecule B8, the binding result is “binds”.

For the next assay, the target named is T1, recombinant soluble extracellular …. The assay is described as follows: ELISA on coated recombinant CD3-epsilon, periplasmic preparation, anti-Flag detection. Here is the method: as §1, with “14: CD3-specific” for “15:”, “Example” for “example”
as §2
Regarding B1, the binding result is on record as “binds”.
The same measure, in the same setting: next, B2: “binds”.
Regarding B4, the binding result is “binds”.
Turning to B5, the binding result is given as “binds”.
Turning to B6, the binding result was “binds”.
On to B3, for which the binding result was “binds”.
As to B8, the binding result is listed as “binds”.
